Results on two substances are retold here after article PMC5040716.

The data set relates to MgaSpn-His (Streptococcus pneumoniae). Description: EMSA. The note with it: MgaSpn EMSA: 40 mM Tris-HCl pH 7.6, 1 mM DTT, 0.4 mM EDTA, 1-2% glycerol, 50 mM NaCl, 10 mM MgCl2, 500 ug/ml BSA, 2 nM DNA, ambient, 20 min; MgaSpn footprint: ….

hlyC 290-bp fragment displayed a dissociation constant (Kd) of 75 nM. In turn, hlyR 288-bp fragment gave an equilibrium dissociation constant (Kd) of 50 nM.
